We go through 1 molecule from KR20220012792A (dated 2022).

Like-named read-outs stand apart in the source and are kept apart here.

Holding throughout (assay): cell-based or functional assay
For test [1], the target named is T1, S 단백질 of SARS-CoV-2 hCoV-19/Korea/KCDC10847/2020 (GH형) (SARS-CoV-2).
The target of test [2] is T2, S 단백질 of SARS-CoV-2 hCoV-19/South Korea/KUMC17/2020 (614G) (SARS-CoV-2).
For test [3], the target named is S 단백질 of SARS-CoV-2 영국변이바이러스주 hCoV-19/South Korea/KDCA0838/2020 (SARS-CoV-2).
In test [4] the target is T2, S 단백질 of SARS-CoV-2 hCoV-19/South …. The source holds these as a separate data set.
The target is the same in test [5]. This is another data set of the same source.
Test [6] concerns the target T1, S 단백질 of SARS-CoV-2 …. This is another data set of the same source.
The target of test [7] is T2, S 단백질 of SARS-CoV-2 hCoV-19/South …. This is another data set of the same source.
Test [8] deals with S 단백질 of SARS-CoV-2 hCoV-19/South Korea/KCDC9481/2020 (614G, G형) (SARS-CoV-2).

B1: No. 139 항체 (Full IgG) (antibody, V domains shown)
VH: QITLKESGPTLVKPTQTLTLTCSFSGFSLSTSGVGVGWIRQPPGKALEWLALIDWDDNKYHTTSLKTRLTISKDTSKNQVVLTMTNMDPVDTATYYCARIPGFLRYRNRYYYYGMDVWGQGTTVTVSS
VL: ELVLTQPPSVSAAPGQKVTISCSGSSSNIGNNYVSWYQQLPGTAPKLLIYDNNKRPSGIPDRFSGSKSGTSATLGITGLQTGDEADYYCGTWDSSLSAGVFGGGTELTVL
For B1, the “IC50 (ng/ml), PRNT” value was 9.31 ng/mL in test [1]; 4.22 ng/mL in test [2]; 9.62 ng/mL in test [3]; 3.37 ng/mL in test [5]; 10.4 ng/mL in test [6]; 5.77 ng/mL in test [7]. Besides, in test [8], the “IC50 (ng/ml), PRNT” value was 10.6 ng/mL. Besides, the “IC50, PRNT” value in test [4] stood at 5.73 ng/mL.
